Data: patent publication US20110002939A1 (BIOCON, published 2011)

Biological target: T1, rhCD6FC/Chimera (R and D systems) (human, UniProt P30203 25-398)
T1 construct: Bought reagent; also called CD6 receptor; Fc part of the bought chimera not given
T1 sequence (looked up): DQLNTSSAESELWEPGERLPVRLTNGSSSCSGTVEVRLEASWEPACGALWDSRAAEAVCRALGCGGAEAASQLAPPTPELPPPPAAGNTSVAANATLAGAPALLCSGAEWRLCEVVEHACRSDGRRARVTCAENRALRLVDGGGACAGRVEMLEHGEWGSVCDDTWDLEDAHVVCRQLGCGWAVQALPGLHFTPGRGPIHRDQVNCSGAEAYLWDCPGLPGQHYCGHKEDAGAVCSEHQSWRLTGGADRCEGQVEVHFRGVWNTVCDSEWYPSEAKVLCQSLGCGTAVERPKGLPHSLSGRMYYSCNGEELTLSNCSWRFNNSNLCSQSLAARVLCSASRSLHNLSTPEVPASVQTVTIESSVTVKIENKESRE
Assay: ELISA, plate-bound rhCD6-Fc, T1h 0.2 mg/ml with varying rhALCAM-Fc, anti human IgG (Fab)2 ALP detection
Protocol: The rhCD6FC/Chimera (R and D systems) (100 μg/ml) was diluted in coating buffer and 100 μl was added to each well of a 96 well Nunc-Maxisorp plate. The plate was then incubated at 4° C. overnight. The Plate was washed thrice with PBS Tween 20. Subsequently, 200 μl of blocking solution (2% BSA+0.1%Tween 20 in 1× PBS) was added and incubated for 1 hour at 37° C. After incubation, the plate was washed again with PBS Tween thrice, followed by the addition of T1h monoclonal antibody (0.2 mg/ml) and .rhALCAMFc (R and D systems) at varying concentrations. This was then incubated for an hour at 37° C. The plate was washed 3 times subsequently with PBS Tween. To the wells 200 μl of anti human IgG (Fab)₂ ALP (1:20000) diluted in blocking buffer was added and incubated for 1 hour at 37° C. The plate was washed thrice with PBS tween and 200 μl of p-Nitrophenyl Phosphate (PNPP) substrate is added to each well and incubated at 37° C. till colour develops around 15 minutes. Reading was taken at 405 nm using a BIOTEK Micro Plate Reader.

binding result: binds
B1: T1h, humanized IgG1 isotype anti-CD6 monoclonal antibody (antibody, V domains shown)
VH: EVQLVESGGGLVKPGGSLKLSCAASGFKFSRYAMSWVRQAPGKRLEWVATISSGGSYIYYPDSVKGRFTISRDNVKNTLYLQMSSLRSEDTAMYYCARRDYDLDYFDSWGQGTLVTVSS
VL: DIQMTQSPSSLSASVGDRVTITCKASRDIRSYLTWYQQKPGKAPKTLIYYATSLADGVPSRFSGSGSGQDYSLTISSLESDDTATYYCLQHGESPFTLGSGTKLEIK
notes: also called humanized IOR-T1; sT1h
